Source: the DeepSol protein solubility set

Assay: soluble on expression in E. coli; label from the status in PepcDB or PDB records

| Sequence | soluble on expression in E. coli |
| --- | --- |
| MGSSHHHHHHGKTIFVIVPTNEEQVAFLEALAKQDELNFDWQNPPTEPGQPVVILIPSDMVEWFLEMLKAKGIPFTVYVEEGGSENLYFQGGGGGGGSEVEASPRVAMIVLEGFSGTVFHALMESGVHMPNIAHMLSSQKGVWAECATSSQSSCARAVVVENDTSGEVYVSAAAAMTSLFSGVSPREHQVYNGSLESMSMYANTSKMNPSIAKRVKDAGMKVSVVGTSHAINSLSIALGSCSRPGVLDMECAASREELLRASVDEYSGSVQLDCLASSSCNMDTRKMTSPTDPQQCSSGQAEAQFTRHLNSIFGGLAYSTQTQEAAMQNTVADNLDNSLFVFHFDALAVRAASTYLPDFQYNASSKEYVAQVYLLDALVGQVISYVRDRARSQKENWLIVGVSNHGGDDKPYAIPNPVSTSENTIAFFMATYTNNMKRFVTLAPLQRPVTQLDVLPTVLTWLNVVPFDAETSAVTAGTNTTAASPAVEARVMERRHFEGLVQGICSSGASLKNCAL | not soluble |
| MGSDKIHHHHHHMQGVPEHFTDERDYAQFRHLPTLPGIELYHAHICRYAFEPHTHEAFGIGTIDDGAEQFRYRGAKHIAPVDSLVLMNPDELHTGESATEDGWRYRMIYIPPDVLESVSGEKGWWFTDVVRHDPATARQLAMTLAALWQTTDPLASESLLLSLIALFRPHAHIAQRQVVEPFHRFDVVKAYLRENFAHTITLKELAALVSLSPYHFLRQFKTQFHVTPHQMLMAIRLYEAKQMLTRGMAAAHVALAVGLTDQAHLTRTFAQRYGVTPIRYQKQVYPTLR | not soluble |
| MALPKTGYTKTTADNFVIDSATVFTDFKYDKEKEEFTGIPMGATSGGVEIKTELSYRKVEVDGAYIMDVVGLNVLESATATMKANLIELTAENLRRSLNATMTDATTDEAPAGYKIIKPKRYLEEGDYIPNMAVVGIHNGTKQPIIVALDNGLVKSGLEIKTEDGKEVVIEQEITANASYEQLINDEFPFRIYYPSTSKNPIELTESL | not soluble |
| MHHHHHHGSMSMPNHQNMLDNQTILITGGTGSFGKCFVRKVLDTTNAKKIIVYSRDELKQSEMAMEFNDPRMRFFIGDVRDLERLNYALEGVDICIHAAALKHVPIAEYNPLECIKTNIMGASNVINACLKNAISQVIALSTDKAANPINLYGATKLCSDKLFVSANNFKGSSQTQFSVVRYGNVVGSRGSVVPFFKKLVQNKASEIPITDIRMTRFWITLDEGVSFVLKSLKRMHGGEIFVPKIPSMKMTDLAKALAPNTPTKIIGIRPGEKLHEVMIPKDESHLALEFEDFFIIQPTISFQTPKDYTLTKLHEKGQKVAPDFEYSSHNNNQWLEPDDLLKLL | soluble |
| MGSDKIHHHHHHMGNKTSQKVLLELLKDRDRWVSGNEIADSLGVTRETIWKNINLLKKRGHQIQSQKNLGYKYESSSKLDEVVINFYKNKSVDHVAVEEQVDSTQMYAKNYLATHQVEKAFAVISEQQTQGYGRRGRSFYSPKEQGLYFSIVIPKPTFEINQVGLITTGVAYVIAQTFKDFFPEREFKLKWVNDILMNRRKVAGIITEAITEVESASTQAFVIGVGINLTTPEFPEELQQKAGAIVAKNEPNIDRNLIAAQLINTIVDNWQNYLDGSFLSEYRRMSIVIGKPVTLQVGTKQVKGIATDINEYGNIVVKLDDGQVKAFNNGEITKVNLDW | not soluble |
| MGSDKIHHHHHHMSSSGYVPDNKNLKKSSGTPNLFFDSRKNIFFKRDEKNVAYEVTSTQLPAMIGGAFVDLFMTKGHMREPHWHPNAWELDVVVSGEAVTSILNPETNQLQNYHMKAGQTVFIPMGWWHWITAVTEEVQLHLFFNNDQFETAEGSDILRLTPPEVFQAAYGVSAEKLGKDLSPIKESVVIGPPNLNRIKGVKESDDSNIVVTLNGQITSCEIE | not soluble |
| SASSSKALIESIGSLDKDSYVSLLSKLIGESKFVQNNPPELIPQEDLIVKHVLDSLRPYSTETGGGPLVINHVAYHSGRGNLIVEYPGSVPGKILSFVGMHMDVVTANPDDWEFDPFSLSIDGDKLRGRGTTDCLGHVALVTELMKKLGQAKPALKSTVVAVFIASEENSSIPGVGVDMLVKDKLLDKLKSGPLYWIDTADKQPCVGTGGMIPWKLQFTGKLFHSGLAHKAINAMELAMEGLKEIQARFYRDFPPHPQEEVYGFATPSTMKPTQWCYPAGGINQIPGECTVSGDVRLTPFYDVKEVITKLQEYVDDINGNIERLETRGPVSKYVLPDENLRGRLTLSFDEASAGVACNLDSPGFHVLCKATEEVVGHVKPYSITGTLPLIRDLQDEGFDVQTSGYGLMATYHAKNEYCLLTDMCQGFDVFIRIISQLEQV | soluble |
